System: MS2 coat protein
Assay: apparent KD of MS2 coat protein; designed switch direction (-1 OFF switch, 1 ON switch): 1; higher = weaker reporter binding
Outline: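 The buffer was Tris-HCl pH 7.5 with KCl, MgCl2, BSA, DTT, tRNA and Tween-20. In it, SNAP-549-labelled MS2 coat protein was titrated in doubling steps from 0.7 or 1.5 nM to 3 µM over chip-bound RNA switches transcribed by stalled E. coli RNA polymerase on Illumina chips. Apparent KD is the per-design median over clusters of curve fits to normalised fluorescence.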

[1] = input ligand: microRNA oligo, concentration not stated
[2] = Eterna round: R95, input ligand: microRNA oligo, concentration not stated
[3] = Eterna round: R95, input ligand: FMN 200 uM
[4] = Eterna round: R95, input ligand: none

Row | Sequence | apparent KD of MS2 coat protein [1] | apparent KD of MS2 coat protein (input ligand: FMN 200 uM) | apparent KD of MS2 coat protein (input ligand: none) | apparent KD of MS2 coat protein [2] | apparent KD of MS2 coat protein [3] | apparent KD of MS2 coat protein [4]
1 | GUACAGAUCACAGGAUAUCACGUCGUUUAGACGUGAGAAGGGUGAUCACACAUGAAUAUUAAUACAUGAGGAUCACCCAUGUAC [SSNG1/16-A3] (Eterna round: R96, puzzle: Same State NG 1) | 22.1 nM | – | – | – | – | –
2 | UAUGACUUACAAGGAUAUUAAUAACAUGAGGAUCACCCAUGUGGCUGUGAGAGUUAGAUAAGCUAUAAGAAGGUGUGUGUGUUU [JR_SSNG2_Sub094] (Eterna round: R96, puzzle: Same State NG 2) | 133 nM | 62.7 nM | 173 nM | – | – | –
3 | AGCUAUUAAUCAGGAUAUGGUCACAUGAGGAUCACCCAUGUGUAGAUGAUAAAAUGUGGUCAAGACUAGAAGGGAUUGCUAACA [SameState NG2 #62] (Eterna round: R96, puzzle: Same State NG 2) | 49.3 nM | 125 nM | 95.9 nM | – | – | –
4 | GACCGCGAGGAAGGAUAUGGAGCCUAAUAGGCUCCAGAAGGUCCAUAAAGGACAUGAGGAUCACCCAUGUGGGCUGAAGCGGUC [Mat - Same State NG 1 - JL mod - D74] (Eterna round: R96, puzzle: Same State NG 1) | 21.4 nM | 18.3 nM | 34.7 nM | – | – | –
5 | UGUUGUAUUACAGGAUAUCUAGUAUUUUUAUAUAGAGAAGGGUAUUCACAUGAGGAUCACCCAUGUAUAUACGAGGAAGUUGUG [JMF's solution 51] (Eterna round: R96, puzzle: Same State NG 1) | 23 nM | – | – | – | – | –
6 | AUUAAACAUGAGGAUCACCCAUGUAAUAUUAUGGGAGGAUAUGCGAAUUUAAUUAAUUAAGCAGAAGGCCUAAUUA [Mat - Same State 1 - D101] (puzzle: Same State 1) | – | – | – | 106 nM | – | –
7 | AGCUAUUAAUCAGGAUAUAGGGACAUGAGGAUCACCCAUGUAUACAUGAUGAAAUGUGAUCACGUCUAGAAGGGAUUACUAACA [SameState NG2 #40] (Eterna round: R96, puzzle: Same State NG 2) | 299 nM | 236 nM | 134 nM | – | – | –
8 | GGCUAUCGGCGUACCGAUAGCUGGUAUGUACAUGAGGAUCACCCAUGUCAUGUACAGGCUUGUUGCUCGUCUUAUUG [JL-shm-2.38 JL mod] (puzzle: Sensor for hsa-mir-208a) | – | – | – | 33 nM | 144 nM | 165 nM
9 | AAUCGUUUGAUAGGAUAUCGCUAUACAUGAGGAUCACCCAUGUUUACCACGCUGGUUUUUCAUACCGAGAAGGAUUCUGAUGAC [salish99_SSNG02_r04_002] (Eterna round: R96, puzzle: Same State NG 2) | 22.6 nM | 26.2 nM | 29.8 nM | – | – | –
10 | AGUCCAGCAUGAGCUGGACAAAAGCAUGUACAUGAGGAUCACCCAUGUCAUGUACAAGCUUUUUGCUCGUCUUAAAA [Mat - hsa-mir-208a - Mod of JL - D1] (puzzle: Sensor for hsa-mir-208a) | – | – | – | 16.7 nM | 512 nM | 627 nM
11 | GUGGUCAGACAUGAGGAUCACCCAUGUGGAAUAAAUAAGGAAUAGGAUAUGGAAUAUAGGAUAUACCAGAAGGGUUGGUUGGUG (Eterna round: R96, puzzle: Same State NG 3) | 73.4 nM | – | – | – | – | –
12 | AUUGCUAGCGCAGGAUAUGAUGCGAAAAUUGCGUCAGAAGGGUGUACUCUCUCAUUGCGGGAGGACAUGAGGAUCACCCAUGUC [SameState NG1 #83] (Eterna round: R96, puzzle: Same State NG 1) | 71.5 nM | 66.6 nM | 83.3 nM | – | – | –
13 | GCUAGAAAUAAAGCCAACAUGAGGAUCACCCAUGUAUGUUGGUAGGAUAUCGUUUGCAAAGCAAACGAGAAGGGCCAAACUAGC [Mat - Same State NG 3 - JL Mod - D20] (Eterna round: R96, puzzle: Same State NG 3) | 104 nM | 86.5 nM | 137 nM | – | – | –
14 | AAAAUAAAUGCGAAAAUUAACCGCAACUGACAUGAGGAUCACCCAUGUGCUUCAAGCUCAGGCAUCUCUUAUCGUCA [Maares] (Eterna round: R96, puzzle: Sensor for hsa-mir-208a) | 67.9 nM | 112 nM | 105 nM | – | – | –
15 | CACGUCCAGGUAGGAUAUGAGGUGCCAUAGGGAACAGCCUAUGGACAUGAGGAUCACCCAUGUCCUCAGAAGGGCCAGACGUGA [Rasote] (Eterna round: R96, puzzle: Same State NG 2) | 116 nM | 25.7 nM | 171 nM | – | – | –
16 | UCGAGCGUACUUGCAGACAUGAGGAUCACCCAUGUAAAUGGGAAGGAUAUGGUACCGUUUCGGUACCAGAAGGUCCUAAGUGUU [salish99_SSNG3_r04_303] (Eterna round: R96, puzzle: Same State NG 3) | 146 nM | 616 nM | 493 nM | – | – | –

Row | Sequence | apparent KD of MS2 coat protein [1] | apparent KD of MS2 coat protein (input ligand: FMN 200 uM) | apparent KD of MS2 coat protein (input ligand: none) | apparent KD of MS2 coat protein [2] | apparent KD of MS2 coat protein [3] | apparent KD of MS2 coat protein [4]
17 | AGCUAGUACCGAGGAUAUACGUACAUGAGGAUCACCCAUGUAUACAUGAAAUAAUGAGACUACAUGUAGAAGGCGGUACUAGCA [Mat - Same State NG 2 - JL mod - D50] (Eterna round: R96, puzzle: Same State NG 2) | 33.5 nM | 14.2 nM | 48.7 nM | – | – | –
18 | ACAUGAGACCGAGGAUAUUUUGUACCUACAUGUGACAUGAGGAUCACCCAUGUGGUAAGUAUGAGAAAGAAGGCGGAGAUAUGU [Equivalence 20 - Jieux - Same State NG 2] (Eterna round: R96, puzzle: Same State NG 2) | 24.8 nM | 22.4 nM | 32.6 nM | – | – | –
19 | ACAUGAGGAUCACCCAUGUCGCUGGUAUCGGAUACGUAUUACGAGGAUAUGCCGAGGAGUUCCGAGUAGAAGGUGUAAUACAUG [Eternabot solution 40] (Eterna round: R96, puzzle: Same State NG 3) | 90.3 nM | 178 nM | 102 nM | – | – | –
20 | UUAUUCUAUAUAGGAUAUUGAUGCAAUUUACCUCAAGAAGGAUAUACAUGAGGAUCACCCAUGUUGGAUAGGGUUAGUUUGUUU [JR_SSNG1_Sub081] (Eterna round: R96, puzzle: Same State NG 1) | 56 nM | – | – | – | – | –
21 | GCCAACUCAUGAGGAUAUGGCACCUUAUUGGUGCCAGAAGGCAUGUCAAUUGACAUGAGGAUCACCCAUGUAUUAUAGUUGGCA [Fiskers NG1ss - 22] (Eterna round: R96, puzzle: Same State NG 1) | 267 nM | 62.5 nM | 489 nM | – | – | –
22 | GCAGUACUAGCAGAGGAUAUGUCGGUAACGACAUGAGGAUCACCCAUGUGUACGAAAGUGCUCAGACAGAAGGCUGAGUACUGCU [Same State 2 - Hyphema v.1] (puzzle: Same State 2) | – | – | – | 58.4 nM | 17.8 nM | 78.4 nM
23 | GGGAGAGGCGCAGGAUAUGGUGAGGAUUACCCACUAGAAGGGUGCACAUGAGAAUCGAACAUGAGGAUCACCCAUGUUCUGAGC (Eterna round: R96, puzzle: Same State NG 1) | 187 nM | 189 nM | 230 nM | – | – | –
24 | UAGUGCAUUAGAGGAUAUUCUUACGACACGAGUAAGACAUGAGGAUCACCCAUGUUGUGGCAUGGGAAGAAGGCUGAUGUGCUA [Omei SS(NG)2 Bv9] (Eterna round: R96, puzzle: Same State NG 2) | 45.3 nM | – | – | – | – | –
25 | GGCCUGUGUCAAGGAUAUGCUACCGUUUCGGUAGCAGAAGGUGAUCACAUGAGGAUCACCCAUGUUUACGCGAACACGCGCGCC (Eterna round: R96, puzzle: Same State NG 1) | 70.6 nM | 193 nM | 79.6 nM | – | – | –
26 | UUUACAUUACGAGGAUAUCAUUUAUUUCAUGUUUGAGAAGGCGUUUUUUUUAUUACCUUACAUGAGGAUCACCCAUGUUUCUUU [JR_SSNG1_Sub043] (Eterna round: R96, puzzle: Same State NG 1) | 26.2 nM | – | – | – | – | –
27 | GAUAAACAUGAGGAUCACCCAUGUGUGAAUAUGGGAGGAUAUACGUGGACCGUAGUCCGCGUAGAAGGCCUAAUUG [Mat - Same State 1 - Mod of JL - D20] (puzzle: Same State 1) | – | – | – | 166 nM | – | –
28 | GCUAGAAUUAAAGCCAACAUGAGGAUCACCCAUGUAUGUUGGCAGGAUAUCGUUUGCUUUGCAAACGAGAAGGGCCAAACUAGC [JL SSNG3 1.01] (Eterna round: R96, puzzle: Same State NG 3) | 76.1 nM | 20.6 nM | 120 nM | – | – | –
29 | GGCCUGUAGACAGGAUAUGGGAAAGGAAGUGUACCAGAAGGGUCAAAGAUAUAGGUGGACAUGAGGAUCACCCAUGUAAUUAAC [PowerStrip SSNG 1.21] (Eterna round: R96, puzzle: Same State NG 1) | 70.5 nM | 56.6 nM | 105 nM | – | – | –
30 | AUUUUUAAUGCAGGAUAUGAUUAACAUGAGGAUCACCCAUGUGGUGUUGUGAGUAAGGAGAGUGAUCAGAAGGGCAUCUUUUUU [JMF's solution 81] (Eterna round: R96, puzzle: Same State NG 2) | 529 nM | 567 nM | 490 nM | – | – | –
31 | GUAGCAUACCGAGGAUAUUCAUACAUGAGGAUCACCCAUGUUAUUAUAGGCCGAUUACGGCCUUGGGAGAAGGCGGAAUGCUAC [Xeonanis - 20 Mod28] (Eterna round: R96, puzzle: Same State NG 2) | 11.4 nM | 13.1 nM | 16.1 nM | – | – | –
